From US20250270287A1 (KEROS THERAPEUTICS, published 2025)
Residue numbers refer to the chain shown, from its start. Blank lines part the entries; values can stand above or below the binder they belong to.

Assays:
[1] = biological target: T1, BMP-9 (UniProt Q9UK05 320-429); assay: SPR (Biacore 8K), Fc protein captured on anti-human IgG, ligand injected
T1 construct: also called bone morphogenetic protein 9
T1 sequence (looked up): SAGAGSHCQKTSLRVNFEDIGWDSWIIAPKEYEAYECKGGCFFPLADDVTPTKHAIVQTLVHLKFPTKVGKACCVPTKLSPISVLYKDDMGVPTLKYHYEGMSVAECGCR
Method: (§1) The Cytiva Biacore 8k was used to measure the kinetics of the interactions between the ActRII- and chimera-Fc proteins and Activin A/Activin B/growth differentiation factor 8 (GDF-8)/GDF-11/BMP-9/BMP-10. Series S CM4 Sensor Chips were immobilized with anti-human capture antibody using the reagents and protocol in the Biacore Human Antibody Capture Kit (GE Life Sciences). Briefly, anti-human IgG was diluted to 25 μg/mL in immobilization buffer. The carboxylated surface of the sensor was activated by injecting a mixture of EDC and NHS. The anti-human IgG was injected into the activated sensor chip flow cells at 10 μL/min for a total of 7 minutes until the chip reached an immobilization level of 3000 resonance units (RU). Ethanolamine was injected to deactivate the sensor surfaces. The chip has 8 flow cells to be used for binding analysis, each with an in-line reference surface to subtract instrument noise and non-specific binding to the sensor chip. The ActRII- and chimera-Fc proteins were captured in their own flow cell to allow for a maximum analyte binding response of 20-30 RU. This was done by injecting 10-20 μL of the ActRII- and chimera-Fc proteins into the flow cells at a concentration of 2 μg/mL until 60-90 RU was captured. Ligand at a single concentration was injected at […] for 60 seconds and then allowed to dissociate under buffer flow for no less than 5 minutes. After the cycle completed, captured protein was stripped from the chip with an injection of 3 M magnesium chloride, the regeneration buffer provided with the Biacore Human Antibody Capture Kit. Each ligand was injected in a concentration series, including a buffer only 0 nM concentration to serve as a double reference for subtracting out instrument noise. The data were analyzed using the Biacore Insight Evaluation Software.

[2] = biological target: T2, Activin A (UniProt P08476 311-426); assay: as above
T2 sequence (looked up): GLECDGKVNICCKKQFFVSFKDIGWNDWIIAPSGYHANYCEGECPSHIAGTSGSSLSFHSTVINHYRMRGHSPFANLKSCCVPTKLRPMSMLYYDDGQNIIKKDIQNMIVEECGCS
Method: as §1

[3] = biological target: T3, Activin B (UniProt P09529 293-407); assay: as above
T3 sequence (looked up): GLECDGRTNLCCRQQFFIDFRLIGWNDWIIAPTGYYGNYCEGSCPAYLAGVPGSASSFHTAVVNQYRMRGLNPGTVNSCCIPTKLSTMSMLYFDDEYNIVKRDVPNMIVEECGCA
Method: as §1

[4] = biological target: T4, GDF-11 (UniProt O95390 299-407); assay: as above
T4 construct: also called growth and differentiation factor 11
T4 sequence (looked up): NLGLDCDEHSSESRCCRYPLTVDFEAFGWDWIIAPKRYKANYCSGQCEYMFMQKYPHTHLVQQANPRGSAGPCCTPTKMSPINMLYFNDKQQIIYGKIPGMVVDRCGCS
Method: as §1

[5] = biological target: T5, BMP-10 (UniProt O95393 317-424); assay: as above
T5 sequence (looked up): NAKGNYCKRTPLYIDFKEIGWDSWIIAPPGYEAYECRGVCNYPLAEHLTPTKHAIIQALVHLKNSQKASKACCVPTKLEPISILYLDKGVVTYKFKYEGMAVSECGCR
Method: as §1

[6] = biological target: T6, growth differentiation factor 8 (GDF-8) (UniProt O14793 267-375); assay: as above
T6 construct: also called myostatin
T6 sequence (looked up): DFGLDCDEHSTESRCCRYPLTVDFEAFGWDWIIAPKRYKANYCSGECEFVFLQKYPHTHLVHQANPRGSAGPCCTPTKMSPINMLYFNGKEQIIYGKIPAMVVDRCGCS
Method: as §1

[7] = biological target: T1, BMP-9; assay: cell-based or functional assay
[8] = biological target: T2, Activin A; assay: cell-based or functional assay
[9] = biological target: T3, Activin B; assay: cell-based or functional assay
[10] = biological target: T4, GDF-11; assay: cell-based or functional assay

Kd [1]: 0.0166 nM
Kd [2]: 0.0347 nM
Kd [3]: 0.00878 nM
Kd [4]: < 0.001 nM
Kd [5]: 0.0298 nM
Kd [6]: 0.0393 nM
IC50, BRE-luciferase reporter in C2C12 cells [7]: 0.082 µg/mL
IC50, SBE-luciferase reporter in HEK293 cells [8]: 0.078 µg/mL
IC50, SBE-luciferase reporter in HEK293 cells [9]: 0.13 µg/mL
IC50, SBE-luciferase reporter in HEK293 cells [10]: 0.3 µg/mL
B1: ActRIIB-A2 (SEQ ID NO: 121) chimera-Fc protein (Fc fusion)
chain: GRGEAETRECIYYNANWEKDRTNQSGLERCEGEQDKRLHCYASWRNSSGTIELVKKGCWLDDFNCYDRQECVATEENPQVYFCCCEGNFCNERFTHLPEAGGPEVTYEPPPTAPT
notes: Tested as chimera-Fc protein; not shown: linker (if any) and Fc domain

Kd [1]: 18.6 nM
Kd [2]: < 0.001 nM
Kd [3]: < 0.001 nM
Kd [4]: < 0.001 nM
Kd [5]: 0.0156 nM
Kd [6]: 0.00353 nM
IC50, BRE-luciferase reporter in C2C12 cells [7]: 0.067 µg/mL
IC50, SBE-luciferase reporter in HEK293 cells [8]: 0.094 µg/mL
IC50, SBE-luciferase reporter in HEK293 cells [9]: 0.18 µg/mL
IC50, SBE-luciferase reporter in HEK293 cells [10]: 0.14 µg/mL
B2: ActRIIB-B1B7 (SEQ ID NO: 116) chimera-Fc protein (Fc fusion)
chain: B1 chain with I11L, Y12F, Y13F, K19L, D20E, R93K, T95S, H96Y, L97F
notes: as for B1

Kd [1]: 0.0398 nM
Kd [2]: 0.0108 nM
Kd [3]: 0.0702 nM
Kd [4]: 0.0292 nM
Kd [5]: 0.0761 nM
Kd [6]: 0.0718 nM
IC50, BRE-luciferase reporter in C2C12 cells [7]: 0.39 µg/mL
IC50, SBE-luciferase reporter in HEK293 cells [8]: 0.35 µg/mL
IC50, SBE-luciferase reporter in HEK293 cells [9]: 0.34 µg/mL
IC50, SBE-luciferase reporter in HEK293 cells [10]: 0.77 µg/mL
B3: ActRIIB-B1B4 (SEQ ID NO: 117) chimera-Fc protein (Fc fusion)
chain: B1 chain with I11L, Y12F, Y13F, K19L, D20E, T50S, L53I, K56Q
notes: as for B1

Kd [1]: 0.0191 nM
Kd [2]: 0.0169 nM
Kd [3]: < 0.001 nM
Kd [4]: < 0.001 nM
Kd [5]: 0.00872 nM
Kd [6]: < 0.001 nM
IC50, BRE-luciferase reporter in C2C12 cells [7]: 0.061 µg/mL
IC50, SBE-luciferase reporter in HEK293 cells [8]: 0.057 µg/mL
IC50, SBE-luciferase reporter in HEK293 cells [9]: 0.073 µg/mL
IC50, SBE-luciferase reporter in HEK293 cells [10]: 0.13 µg/mL
B4: ActRIIB-A7 (SEQ ID NO: 125) chimera-Fc protein (Fc fusion)
chain: B1 chain with K19L, D20E, F89M
notes: as for B1

Kd [1]: 0.0632 nM
Kd [2]: 0.00327 nM
Kd [3]: 0.0158 nM
Kd [4]: < 0.001 nM
Kd [5]: 0.0414 nM
Kd [6]: 0.0102 nM
IC50, BRE-luciferase reporter in C2C12 cells [7]: 0.022 µg/mL
IC50, SBE-luciferase reporter in HEK293 cells [8]: 0.069 µg/mL
IC50, SBE-luciferase reporter in HEK293 cells [9]: 0.11 µg/mL
IC50, SBE-luciferase reporter in HEK293 cells [10]: 0.096 µg/mL
B5: ActRIIB-B5 (SEQ ID NO: 114) chimera-Fc protein (Fc fusion)
chain: B1 chain with K19L, D20E, A73E, T74K
notes: as for B1

Kd [1]: 0.361 nM
Kd [2]: 0.00152 nM
Kd [3]: 0.00581 nM
Kd [4]: 0.00117 nM
Kd [5]: 0.175 nM
Kd [6]: 0.0104 nM
IC50, BRE-luciferase reporter in C2C12 cells [7]: 0.41 µg/mL
IC50, SBE-luciferase reporter in HEK293 cells [8]: 0.07 µg/mL
IC50, SBE-luciferase reporter in HEK293 cells [9]: 0.096 µg/mL
IC50, SBE-luciferase reporter in HEK293 cells [10]: 0.14 µg/mL
B6: ActRIIB-B3 (SEQ ID NO: 112) chimera-Fc protein (Fc fusion)
chain: B1 chain with K19L, D20E, L38R, Y41F, S43T, R45K, S47I
notes: as for B1

Kd [1]: 0.00327 nM
Kd [2]: < 0.001 nM
Kd [3]: 0.0116 nM
Kd [4]: < 0.001 nM
Kd [5]: 0.0205 nM
Kd [6]: < 0.001 nM
IC50, BRE-luciferase reporter in C2C12 cells [7]: 0.3 µg/mL
IC50, SBE-luciferase reporter in HEK293 cells [8]: 0.14 µg/mL
IC50, SBE-luciferase reporter in HEK293 cells [9]: 0.17 µg/mL
IC50, SBE-luciferase reporter in HEK293 cells [10]: 0.27 µg/mL
B7: ActRIIB-B2 (SEQ ID NO: 111) chimera-Fc protein (Fc fusion)
chain: B1 chain with K19L, D20E, S25T, L27V, R29P
notes: as for B1

Kd [1]: 1.08 nM
Kd [2]: 0.0066 nM
Kd [3]: 0.0197 nM
Kd [4]: < 0.001 nM
Kd [5]: 0.369 nM
Kd [6]: 0.00354 nM
IC50, BRE-luciferase reporter in C2C12 cells [7]: 0.36 µg/mL
IC50, SBE-luciferase reporter in HEK293 cells [8]: 0.13 µg/mL
IC50, SBE-luciferase reporter in HEK293 cells [9]: 0.086 µg/mL
IC50, SBE-luciferase reporter in HEK293 cells [10]: 0.14 µg/mL
B8: ActRIIB-B1B2B3B4 (SEQ ID NO: 119) chimera-Fc protein (Fc fusion)
chain: GRGEAETRECLFFNANWELERTNQTGVEPCEGEQDKRRHCFATWKNISGSIEIVKQGCWLDDFNCYDRQECVATEENPQVYFCCCEGNFCNERFTHLPEAGGPEVTYEPPPTAPT
notes: as for B1
